The results in this text go back to US20190323037, “REPLICATIVE TRANSPOSON SYSTEM” (HORIZON DISCOVERY LIMITED, published 2019).

Series [1] concerns the target T1, Helraiser transposase (RepHel, Helitron) (Myotis lucifugus).
T1 chain: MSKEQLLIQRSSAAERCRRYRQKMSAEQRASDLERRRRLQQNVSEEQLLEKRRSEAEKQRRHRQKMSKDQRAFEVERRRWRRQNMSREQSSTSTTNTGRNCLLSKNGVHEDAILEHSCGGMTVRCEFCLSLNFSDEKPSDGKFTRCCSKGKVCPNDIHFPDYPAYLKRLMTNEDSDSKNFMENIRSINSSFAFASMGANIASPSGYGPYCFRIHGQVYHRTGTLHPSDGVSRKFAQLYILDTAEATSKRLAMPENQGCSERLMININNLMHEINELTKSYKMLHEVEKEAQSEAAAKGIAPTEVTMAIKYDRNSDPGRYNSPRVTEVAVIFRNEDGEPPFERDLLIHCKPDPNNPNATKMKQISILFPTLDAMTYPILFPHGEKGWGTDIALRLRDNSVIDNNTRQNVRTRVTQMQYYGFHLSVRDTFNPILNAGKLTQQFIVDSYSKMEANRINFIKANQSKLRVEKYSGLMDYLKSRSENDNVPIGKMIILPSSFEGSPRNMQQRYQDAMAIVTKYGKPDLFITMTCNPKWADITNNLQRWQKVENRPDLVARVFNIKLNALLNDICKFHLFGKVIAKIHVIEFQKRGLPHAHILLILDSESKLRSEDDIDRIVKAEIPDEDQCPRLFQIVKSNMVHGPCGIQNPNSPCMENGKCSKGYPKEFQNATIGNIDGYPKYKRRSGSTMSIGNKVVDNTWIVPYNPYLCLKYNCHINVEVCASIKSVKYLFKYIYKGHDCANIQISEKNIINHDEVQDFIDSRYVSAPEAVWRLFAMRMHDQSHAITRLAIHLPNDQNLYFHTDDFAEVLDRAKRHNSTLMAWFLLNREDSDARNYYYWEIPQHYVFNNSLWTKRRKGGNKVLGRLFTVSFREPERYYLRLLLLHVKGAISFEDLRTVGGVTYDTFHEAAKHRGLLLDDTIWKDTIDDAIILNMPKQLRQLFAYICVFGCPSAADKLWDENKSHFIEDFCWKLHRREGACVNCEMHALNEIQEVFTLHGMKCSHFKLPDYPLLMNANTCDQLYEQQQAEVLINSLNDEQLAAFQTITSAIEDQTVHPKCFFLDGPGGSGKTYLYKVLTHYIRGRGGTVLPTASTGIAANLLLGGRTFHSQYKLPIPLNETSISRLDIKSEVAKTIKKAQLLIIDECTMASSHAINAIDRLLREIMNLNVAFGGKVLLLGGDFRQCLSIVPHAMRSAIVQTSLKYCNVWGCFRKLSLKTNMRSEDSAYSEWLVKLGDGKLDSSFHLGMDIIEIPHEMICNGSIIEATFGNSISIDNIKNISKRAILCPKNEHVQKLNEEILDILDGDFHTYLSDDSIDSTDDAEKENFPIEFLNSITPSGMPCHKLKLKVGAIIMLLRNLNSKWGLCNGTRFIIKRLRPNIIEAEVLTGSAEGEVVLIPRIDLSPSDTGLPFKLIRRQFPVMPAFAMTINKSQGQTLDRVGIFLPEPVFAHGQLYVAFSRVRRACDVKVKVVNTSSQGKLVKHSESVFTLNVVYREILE
Description: EMSA; text says cleavage-assay oligonucleotides bound. Conditions: tags: His tag (pFastBac HT-A), TEV-cleaved, insect cells, label: 6-FAM. Here is the method:
(§1) Binding of the Helraiser transposase to various DNA oligonucleotides was measured by EMSA using 6% TBE gels (Invitrogen). Purified protein at 15 nM-150 nM was incubated for 30 min at room temperature in binding buffer (50 mM Tris pH 7.5, 100 mM NaCl, 10 mM MgCl₂, 0.5 mM ETDA, 1 mM TCEP) with 50 nM 6-FAM labeled oligonucleotides. After addition of DNA gel loading solution (Quality Biological, INC), samples were run on 6% TBE gels and visualized.

For series [2], the target named is T1, Helraiser transposase (RepHel, Helitron). Description: EMSA; 10 mM MgCl2, 100 mM NaCl, pH 7.5, RT; 50 nM oligo; text says cleavage-assay oligonucleotides. Conditions: tags: His tag (pFastBac HT-A), TEV-cleaved; insect cells; label: 6-FAM. On the procedure:
as §1
In general terms: Mobility shift assays separate free from complexed probe on a gel.

B1: Helraiser LTS substrate (-), bottom strand (ssDNA)
DNA: GGGATGGTCAATTTGCATGTTTCTCTTTTATTATATAGGATCATATGGTG
modifications: [NONE]
B1: in series [1], the binding result is reported as “binds”.

B2: Helraiser LTS substrate (+), top strand (ssDNA)
DNA: CACCATATGATCCTATATAATAAAAGAGAAACATGCAAATTGACCATCCC
Consider B2, for which, in series [2], the binding result is reported as “binds”.

B3: Helraiser RTS substrate (+), top strand (ssDNA)
DNA: CCCTTTCAATGTGCACGAATTTCGTGCACCGGGCCACTAGTATATATATA
Turning to B3, in series [1] (potential hairpin (19-nt palindrome)), the binding result was “binds”.

B4: Helraiser RTS substrate (-), bottom strand (ssDNA)
DNA: TATATATATACTAGTGGCCCGGTGCACGAAATTCGTGCACATTGAAAGGG
modifications: [NONE]
Take B4: the binding result in series [1] is “binds”.
